Experimental data published in patent US20160200782A1.

Experiments:
Test in all cases: cell-based or functional assay
CK1δ(h) (human), P48730 = target: CK1δ(h) (human), P48730
[1] = target: CaMKIIδ(h) (human), Q13557
[2] = target: CaMKIδ(h) (human), Q8IU85
[3] = target: JNK2α2(h) (human), P45984
MKK7β(h) (human), O14733 = target: MKK7β(h) (human), O14733
PKCβI(h) (human), P05771 = target: PKCβI(h) (human), P05771
PKG1α(h) (human), Q13976 = target: PKG1α(h) (human), Q13976
Chain of PKG1α(h) (human), Q13976 (Q13976 whole entry): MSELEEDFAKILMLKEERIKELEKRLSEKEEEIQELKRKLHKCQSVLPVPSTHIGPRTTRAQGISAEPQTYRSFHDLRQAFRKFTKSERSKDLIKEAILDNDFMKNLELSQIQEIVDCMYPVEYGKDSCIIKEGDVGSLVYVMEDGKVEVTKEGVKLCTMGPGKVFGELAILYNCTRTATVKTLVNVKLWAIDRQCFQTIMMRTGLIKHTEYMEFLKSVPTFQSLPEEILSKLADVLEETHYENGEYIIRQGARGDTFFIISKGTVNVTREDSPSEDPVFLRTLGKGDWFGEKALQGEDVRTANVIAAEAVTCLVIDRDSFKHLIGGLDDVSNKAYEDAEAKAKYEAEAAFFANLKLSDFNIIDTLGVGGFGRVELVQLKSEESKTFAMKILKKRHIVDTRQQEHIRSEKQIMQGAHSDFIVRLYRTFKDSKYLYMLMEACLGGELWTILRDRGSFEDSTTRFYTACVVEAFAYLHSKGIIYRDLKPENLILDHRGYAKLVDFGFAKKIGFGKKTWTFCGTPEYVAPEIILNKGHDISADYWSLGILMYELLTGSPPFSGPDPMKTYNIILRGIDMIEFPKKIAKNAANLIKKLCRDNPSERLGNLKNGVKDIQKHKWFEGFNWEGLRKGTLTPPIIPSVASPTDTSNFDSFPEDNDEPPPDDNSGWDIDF

Chain of MKK7β(h) (human), O14733 (O14733 whole entry): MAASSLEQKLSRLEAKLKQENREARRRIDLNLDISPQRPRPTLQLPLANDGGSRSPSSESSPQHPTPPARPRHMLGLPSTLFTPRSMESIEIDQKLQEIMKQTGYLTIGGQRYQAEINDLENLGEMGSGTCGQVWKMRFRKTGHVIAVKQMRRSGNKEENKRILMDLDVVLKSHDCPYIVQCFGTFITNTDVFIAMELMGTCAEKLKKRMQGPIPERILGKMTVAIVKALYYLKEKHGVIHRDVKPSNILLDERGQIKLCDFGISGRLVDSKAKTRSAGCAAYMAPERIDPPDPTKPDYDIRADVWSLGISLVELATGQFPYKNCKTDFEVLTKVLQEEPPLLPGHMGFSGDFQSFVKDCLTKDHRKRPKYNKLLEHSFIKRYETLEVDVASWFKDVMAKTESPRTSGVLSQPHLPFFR
Chain of CaMKIIδ(h) (human), Q13557 (Q13557 whole entry, stated change not applied): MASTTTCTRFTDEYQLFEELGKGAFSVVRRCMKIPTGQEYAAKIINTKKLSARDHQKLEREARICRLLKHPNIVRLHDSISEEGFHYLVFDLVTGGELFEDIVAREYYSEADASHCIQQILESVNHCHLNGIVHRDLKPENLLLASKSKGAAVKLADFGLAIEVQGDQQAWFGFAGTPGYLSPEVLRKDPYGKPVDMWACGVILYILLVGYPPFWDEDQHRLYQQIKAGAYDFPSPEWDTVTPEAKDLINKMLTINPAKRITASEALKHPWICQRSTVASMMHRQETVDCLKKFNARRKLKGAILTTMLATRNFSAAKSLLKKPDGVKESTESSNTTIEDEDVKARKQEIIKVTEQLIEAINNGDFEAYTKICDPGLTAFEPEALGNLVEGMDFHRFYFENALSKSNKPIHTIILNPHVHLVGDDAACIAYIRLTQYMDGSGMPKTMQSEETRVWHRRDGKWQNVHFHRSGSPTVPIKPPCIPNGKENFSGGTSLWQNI
Chain of PKCβI(h) (human), P05771 (P05771 whole entry): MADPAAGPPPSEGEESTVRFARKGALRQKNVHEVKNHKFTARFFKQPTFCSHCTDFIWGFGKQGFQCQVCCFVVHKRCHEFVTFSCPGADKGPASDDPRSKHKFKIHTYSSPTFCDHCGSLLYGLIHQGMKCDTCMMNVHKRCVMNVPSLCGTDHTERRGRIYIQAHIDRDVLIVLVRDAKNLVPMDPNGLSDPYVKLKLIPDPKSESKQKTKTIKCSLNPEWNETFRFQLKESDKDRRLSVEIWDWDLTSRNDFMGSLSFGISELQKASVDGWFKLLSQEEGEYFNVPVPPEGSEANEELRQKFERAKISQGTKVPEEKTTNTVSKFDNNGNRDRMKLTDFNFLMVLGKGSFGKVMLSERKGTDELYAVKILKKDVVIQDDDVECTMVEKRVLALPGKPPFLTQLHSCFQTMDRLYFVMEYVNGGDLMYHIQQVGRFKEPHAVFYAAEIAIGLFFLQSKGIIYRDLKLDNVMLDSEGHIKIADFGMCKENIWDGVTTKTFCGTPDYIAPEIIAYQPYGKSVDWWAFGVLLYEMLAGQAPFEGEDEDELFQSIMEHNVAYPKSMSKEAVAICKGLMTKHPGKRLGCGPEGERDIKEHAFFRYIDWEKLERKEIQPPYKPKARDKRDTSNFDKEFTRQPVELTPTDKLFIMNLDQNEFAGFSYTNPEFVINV
Chain of CK1δ(h) (human), P48730 (P48730 1-294, stated change not applied): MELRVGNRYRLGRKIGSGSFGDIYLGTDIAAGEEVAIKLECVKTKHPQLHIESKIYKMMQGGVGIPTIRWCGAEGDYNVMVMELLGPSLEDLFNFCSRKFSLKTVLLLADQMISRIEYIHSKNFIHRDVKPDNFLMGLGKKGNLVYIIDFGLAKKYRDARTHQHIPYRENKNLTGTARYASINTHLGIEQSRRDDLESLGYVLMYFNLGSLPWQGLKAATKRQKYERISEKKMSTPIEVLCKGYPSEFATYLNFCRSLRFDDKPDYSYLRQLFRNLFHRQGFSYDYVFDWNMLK
Chain of CaMKIδ(h) (human), Q8IU85 (Q8IU85 whole entry, stated change not applied): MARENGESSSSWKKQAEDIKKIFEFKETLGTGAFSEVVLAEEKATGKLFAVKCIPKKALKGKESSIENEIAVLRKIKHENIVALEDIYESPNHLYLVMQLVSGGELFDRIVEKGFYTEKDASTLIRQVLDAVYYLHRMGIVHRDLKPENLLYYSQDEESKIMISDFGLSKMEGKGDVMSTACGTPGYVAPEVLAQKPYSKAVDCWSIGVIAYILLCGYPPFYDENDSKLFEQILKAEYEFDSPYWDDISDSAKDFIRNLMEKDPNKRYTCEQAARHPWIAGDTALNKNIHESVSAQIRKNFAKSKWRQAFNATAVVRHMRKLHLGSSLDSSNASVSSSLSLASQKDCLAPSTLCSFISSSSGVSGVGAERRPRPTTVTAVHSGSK

Binder	% activity (CK1δ(h) (human), P48730) [%]	% activity [1] [%]	% activity [2] [%]	% activity [3] [%]	% activity (MKK7β(h) (human), O14733) [%]	% activity (PKCβI(h) (human), P05771) [%]	% activity (PKG1α(h) (human), Q13976) [%]
FAKLAARLYRKALARQLGVAA [MMI-0300]	92	1	10	98	100	78	64
KAFAKLAARLYRKALARQLGVAA [MMI-0400]	93	2	17	96	94	78	58
